From the DeepSol protein solubility set

Experiment: soluble on expression in E. coli; label from the status in PepcDB or PDB records

Sequence	soluble on expression in E. coli
MGHHHHHHSHKVENFEAAVHFYGKAIELNPANAVYFCNRAAAYSKLGNYAGAVQDCERAICIDPAYSKAYGRMGLALSSLNKHVEAVAYYKKALELDPDNETYKSNLKIAELKLREAPSPTGGVGSFDIAGLLNNPGFMSMASNLMNNPQIQQLMSGMISGGNNPLGTPGTSPSQNDLASLIQAGQQFAQQMQQQNPELIEQLRSQIRSRTP	not soluble
MGHHHHHHSHLRYMKESQVLLTLTNPVENLTHVTLFECEEGDPDDINSTAKVVVPPKELVLAGKDAAAEYDELAEPQDFQDDPDIIAFRKANKVGIFIKVTPQREEGEVTVCFKMKHDFKNLAAPIRPIEESDQGTEVIWLTQHVELSLGPLLP	soluble
MGHHHHHHSHMAATSGTDEPVSGELVSVAHALSLPAESYGNDPDIEMAWAMRAMQHAEVYYKLISSVDPQFLKLTKVDDQIYSEFRKNFETLRIDVLDPEELKSESAKEKWRPFCLKFNGIVEDFNYGTLLRLDCSQGYTEENTIFAPRIQFFAIEIARNREGYNKAVYISVQDKEGEKGVNNGGEKRADSGEEENTKNGGEKGADSGEEKEEGINREDKTDKGGEKGKEADKEINKSGEKAM	not soluble
MGHHHHHHSHMAFILCPLTCPGECEGSTGKLECCLCLPSQWAVLTAAPHPYRWSQEAGRVGEGKIGKTGRPRPRQNSLSSLHFWSPVVMCL	not soluble
MGHHHHHHSHMAMRQTPLTCSGHTRPVVDLAFSGITPYGYFLISACKDGKPMLRQGDTGDWIGTFLGHKGAVWGATLNKDATKAATAAADFTAKVWDAVSGDELMTLAHKHIVKTVDFTQDSNYLLTGGQDKLLRIYDLNKPEAEPKEISGHTSGIKKALWCSEDKQILSADDKTVRLWDHATMTEVKSLNFNMSVSSMEYIPEGEILVITYGRSIAFHSAVSLDPIKSFEAPATINSASLHPEKEFLVAGGEDFKLYKYDYNSGEELESYKGHFGPIHCVRFSPDGELYASGSEDGTLRLWQTVVGKTYGLWKCVLPEEDSGELAKPK	not soluble
MGHHHHHHSHMASETHNVKKRNFCNKIEDHFIDLPRKKISNFTNKNMKEVKKSPKQLAAYINRTVGQTVKSPDKLRKVIYRRKKVHHPFPNPCYRKKQSPGSGGCDMANKENELACAGHLPEKLHHDSRTYLVNSSDSGSSQTESPSSKYSGFFSEVSQDHETMAQVLFSRNMRLNVALTFWRKRSISELVAYLLRIEDLGVVVDCLPVLTNCLQEEKQYISLGCCVDLLPLVKSLLKSKFEEYVIVGLNWLQAVIKRWWSELSSKTEIINDGNIQILKQQLSGLWEQENHLTLVPGYTGNIAKDVDAYLLQLH	not soluble
MGHHHHHHSHMAVEDEGLRVFQSVKIKIGEAKNLPSYPGPSKMRDCYCTVNLDQEEVFRTKIVEKSLCPFYGEDFYCEIPRSFRHLSFYIFDRDVFRRDSIIGKVAIQKEDLQKYHNRDTWFQLQHVDADSEVQGKVHLELRLSEVITDTGVVCHKLATRIVECQGLPIVNGQCDPYATVTLAGPFRSEAKKTKV	not soluble
MGHHHHHHSHMEFIVDSVDKTMHIGRQLGSLVNKGDILCLTGDLGTGKTHISKGIAEGLGIDEHITSPTFNIVNEYHSGRLTLYHFDVYRVNDPDEIEAIGFDEYIFGDGVSLIEWANYIEELIPEEYIHIKIEKLPDMGENFRKITINGYGDRYNYIKEIKE	not soluble
MGHHHHHHSHMEGSFSDGGALPEGLAEEAEPQGAAWSGDSGTVSQSHSSASGPWEDEGAEDGAPGRDLPLLRRAAAGYAACLLPGAGARPEVEALDASLEDLLTRVDEFVGMLDMLRGDSSHVVSEGVPRIHAKAAEMRRIYSRIDRLEAFVRMVGGRVARMEEQVTKAEAELGTFPRAFKKLLHTMNVPSLFSKSAPSRPQQAGYEAPVLFRTEDYFPCCSERPQL	not soluble
MGHHHHHHSHMEKALLGACDCTQIVKPSGVHLKLVLRFSDFGKAMFKPMRQQRDEETPVDFFYFIDFQRHNAEIAAFHLDRILDFRRVPPTVGRIVNVTKEILEVTKNEILQSVFFVSPASNVCFFAKCPYMCKTEYAVCGNPHLLEGSLSAFLPSLNLAPRLSVPNPWIRSYTLAGKEEWEVNPLYCDTVKQIYPYNNSQRLLNVIDMAIFDFLIGNMDRHHYEMFTKFGDDGFLIHLDNARGFGRHSHDEISILSPLSQCCMIKKKTLLHLQLLAQADYRLSDVMRESLLEDQLSPVLTEPHLLALDRRLQTILRTVEGCIVAHGQQSVIV	soluble
MGHHHHHHSHMEKCSVGGLELTEQTPALLGNMAMATSLMDIGDSFGHPACPLVSRSRNSPVEDDDDDDDVVFIESIQPPSISAPAIADQRNFIFASSKNEKPQGNYSVIPPSSRDLASQKGNISETIVIDDEEDIETNGGAEKKSSCFIEWGLPGTKNKTNDLDFSTSSLSRSKTKTGVRPFNPGRMNVAGDLFQNGEFATHHSPEMHLQRRLMSFFQ	soluble
MGHHHHHHSHMFKNTFQSGFLSILYSIGSKPLQIWDKKVRNGHIKRITDNDIQSLVLEIEGTNVSTTYITCPADPKKTLGIKLPFLVMIIKNLKKYFTFEVQVLDDKNVRRRFRASNYQSTTRVKPFICTMPMRLDDGWNQIQFNLLDFTRRAYGTNYIETLRVQIHANCRIRRVYFSDRLYSEDELPAEFKLYLPVQNKAKQ	soluble
MGHHHHHHSHMFWRNPLPNIDHELQELLIDRGEDVPSEEEEEEENGFEDRKDDSDDDGGGWITPSNIKQIQQELEQCDVPEDVRVGCLTTDFAMQNVLLQMGLHVLAVNGMLIREARSYILRCHGCFKTTSDMSRVFCSHCGNKTLKKVSVTVSDDGTLHMHFSRNPKVLNPRGLRYSLPTPKGGKYAINPHLTEDQRFPQLRLSQKARQKTNVFAPDYIAGVSPFVENDISSRSATLQVRDSTLGAGRRRLNPNASRKKFVKKR	not soluble
MGHHHHHHSHMGLQQEISLQPWCHHPAESCQTTTDMTERLSAEQIKEYKGVFEMFDEEGNGEVKTGELEWLMSLLGINPTKSELASMAKDVDRDNKGFFNCDGFLALMGVYHEKAQNQESELRAAFRVFDKEGKGYIDWNTLKYVLMNAGEPLNEVEAEQMMKEADKDGDRTIDYEEFVAMMTGESFKLIQ	soluble
MGHHHHHHSHMHKSNFETLQHYLESQIIGQHDLVKQLLIALLADGHILVEGPPGLAKTRAVKSLSDCVEGDFHRIQFTPDLLPADLTGTDIFRPETGEFTFQSGPIFNSLILADEINRAPAKVQAAMLEAMAEKQVTAGRHTYALPELFLVMATQNPIEQEGTYPLPEAQLDRFLLHLEVDYPDAEHELAILRINRGEAKGECSIERPSLSQQDIFTARQEVLDIHMAEAIEQYIVRLVMATRRASEYDSELDKWLAMGVSPRATIALDRCARAHAWLAGRDFVSPEDVQAMAYPVLRHRLLLSYHAQAEGVTSNQVIDKLLNLVGSA	soluble
MGHHHHHHSHMIQPRLLADAIVLFTSSQEEVTLAVTPLNFCLKSSNEESMDLSNAVHSEMFVGSDEFDFFQIGMDTEITFCFKELKGILTFSEATHAPISIYFDFPGKPLALSIDDMLVEANFILATLADEQSRASSPQSLCLSQKRKRSDLIEKKAGKNVTGQALECISKKAAPRRLYPKETLTNISALENCGSPAMKRVDGDVSEVSESSVSNTEEVPGSLCLRKFSCMFFGAVSSDQQEHFNHPFDSLARASGSEEDMNNVCCRKEFNGSDAEYFCII	not soluble
MGHHHHHHSHMKVGKNNFRPPPKVESSVVRIEPKNPPPPINFQEWDGLVRITFVRKNKTLSAAFKSSAVQQLLEKNYRIHCSVHNIIIPEDFSIADKIQQILTSTGFSDKRARSMDIDDFIRLLHGFNAEGIHFS	not soluble
MGHHHHHHSHMLGSWPARTFHPGACVSRRPSAPWKHTASGKDSPDLRFSEHGVSQEFWAGGLVAVLEMTPSPSPWGTQEDPAGMCSLWVVGWCPCRGAGVRDLVLVHAGVWCKHVCAVQRDACGESRTPAPPRKGGAVTSVLCLFLIKTFPLFSYKFASCKQVHKDPPLVKSGFE	soluble
MGHHHHHHSHMNTKTMRLPPRRVLTADKRKERDAFISSVTDNPPEIAKFPSPPPKLVPPPVNPISKKSSTAAAEPIGSNQLMLAGYLSHEYLTQGTLFGEQWNQARAQAESSKIKPSHTVEPAEECEPKRKRYREVANLLRSDGAQLPGIVNPAQLARFLKL	soluble
MGHHHHHHSHMQEWLYGEKGYYRKALIGQKGDFYTSVSVSKFFGGAVAFYIIKLLEEEKLFLPLKIVEIGSHHGHFLSDIASFLNALSVGVMEQCAFVSCEPLKELQKLQRTIFKQATQLDLMICDLKDLDFKGHENAFVVSNELFDAFACEIVKDNKMLFIAHDHKGVWGAIDEPTKELLKNLDLKQGCAPLFLEAFIKDLLEKLNEASSWVFLSFDYGDETERKDMHLRAFKNHQALDFKDILNNLASLYQQSDLTYDVNFSLVRFLFEKHHAQFSFFKTQANALLDMGLMGLLETFSKSVGYERYLKEAAKIKPLISPGGLGERFKALEFVKKNKM	not soluble
MGHHHHHHSHMRIVFDIGGSVLVPEKPDVDFITKLGYELTKISEDHEIAIVVGGGKVAREYIEVASKFNTNETFKDYLGIQITRANAMLLIAALKERAYPQVVSDFWEAWKAIQLKKIPVMGGTHPGHTTDAVSALLAEFLSADLLVVITNVDGVYTEDPKKNPNAKKIPKMKAKDLVDIVSREAGKAGVSTVIDPLAAKIIMRSGIKTYVIG	not soluble
MGHHHHHHSHMRKIDLCLSSEGSEVILATSSDEKHPPENIIDGNPETFWTTTGMFPQEFIICFHKHVRIERLVIQSYFVQTLKIEKSTSKEPVDFEQWIEKDLVHTEGQLQNEEIVAHGSATYLRFIIVSAFDHFASVHSVSAEGTVVSNLSS	soluble
MGHHHHHHSHMSCTIEKILTDAKTLLERLREHDAAAESLVDQSAALHRRVAAMREAGTALPDQYQEDASDMKDMSKYKPHILLSQENTQIRDLQQENRELWISLEEHQDALELIMSKYRKQMLQLMVAKKAVDAEPVLKAHQSHSAEIESQIDRICEMGEVMRKAVQVDDDQFCKIQEILAQLELENKELRELLSISSESHQARKENSMDTASQAIK	not soluble
MGHHHHHHSHMSGTEEAILGGRDSHPAAGGGSVLCFGQCQYTAEEYQAIQKALRQRLGPEYISSRMAGGGQKVCYIEGHRVINLANEMFGYNGWAHSITQQNVDFVDLNNGKFYVGVCAFVRVQLKVRGWSRPAARKDQWVVGEGWFIS	not soluble
MGHHHHHHSHMSHKNMKLKERVLIPVKQYPKFNFVGKILGPQGNTIKRLQEETGAKISVLGKGSMRDKAKEEELRKGGDPKYAHLNMDLHVFIEVFGPPCEAYALMAHAMEEVKKFLVPDMMDDICQEQFLELSYLNGVPEPS	not soluble
MGHHHHHHSHMSRRKQGKPQHLSKREFSPEPLEAILTDDEPDHGPLGAPEGDHDLLTCGQCQMNFPLGDILIFIEHKRKQCNGSLCLEKAVDKPPSPSPIEMKKASNPVEVGIQVTPEDDDCLSTSSRRICPKQEHIADKLLHWRGLSSPRSAHGALIPTPGMSAEYAPQGICKDEPSSYTCTTCKQPFTSAWFLLQHAQNTHGLRIYLESEHGSPLTPRVLHTPPFGVVPRELKMCGSFRMEAREPLSSEKI	not soluble
MGHHHHHHSHMSVMFDPDTAIYPFPPKPTPLSIDEKAYYREKIKRLLKERNAVMVAHYYTDPEIQQLAEETGGCISDSLEMARFGAKHPASTLLVAGVRFMGETAKILSPEKTILMPTLQAECSLDLGCPVEEFNAFCDAHPDRTVVVYANTSAAVKARADWVVTSSIAVELIDHLDSLGEKIIWAPDKHLGRYVQKQTGGDILCWQGACIVHDEFKTQALTRLQEEYPDAAILVHPESPQAIVDMADAVGSTSQLIAAAKTLPHQRLIVATDRGIFYKMQQAVPDKELLEAPTAGEGATCRSCAHCPWMAMNGLQAIAEALEQEGSNHEVHVDERLRERALVPLNRMLDFAATLRG	soluble
